Starred links: 1 amine or outer side, 2 acyl side, 3 side chain; linkers in the order of their positions; H or OH if unused. Positions of bridges follow the written chain, without caps; N, C: chain ends. Non-standard residues stand in square brackets, D forms with d. Primed or numbered codes have the meaning given here. No end group written: not given here. mXylyl(3) = bridging moiety between the two residues given in brackets; Tyr(OMe) = O-methyl tyrosine, COc1ccc(C[C@H](N[*:1])C(=O)[*:2])cc1; mXylyl″ = bridging moiety between the two marked residues; Trp(7-aza) = N[C@@H](Cc1c[nH]c2ncccc12)C(=O)O; mXylyl(4) = bridging moiety between residues; NMePhe(4-F) = CN[C@@H](Cc1ccc(F)cc1)C(=O)O; pXylyl = bridging moiety between residues; PEG2000 = polyethylene glycol, 2000 Da; Phe(4-F) = N[C@@H](Cc1ccc(F)cc1)C(=O)O; mXylylene = c1cc(C[*:1])cc(C[*:2])c1; oXylylene = c1ccc(C[*:2])c(C[*:1])c1; hPhe = N[C@@H](CCc1ccccc1)C(=O)O; Phg(2-OMe)′ = not defined here; dChg = N[C@@H](C(=O)O)C1CCCCC1; Chg = N[C@H](C(=O)O)C1CCCCC1; Phg = N[C@H](C(=O)O)c1ccccc1; Tle = CC(C)(C)[C@H](N)C(=O)O; NMeS = CN[C@@H](CO)C(=O)O; NMeA = CN[C@@H](C)C(=O)O; Nva = CCC[C@H](N)C(=O)O; Sar = CNCC(=O)O
B1: R3072 (peptide)
peptide: Ac-[Nva][Nva]YEN[Tle]Y[Trp(7-aza)]EYP[Chg][Nva]K-NH2
SMILES: CCC[C@H](NC(C)=O)C(=O)N[C@@H](CCC)C(=O)N[C@@H](Cc1ccc(O)cc1)C(=O)N[C@@H](CCC(=O)O)C(=O)N[C@@H](CC(N)=O)C(=O)N[C@H](C(=O)N[C@@H](Cc1ccc(O)cc1)C(=O)N[C@@H](Cc1c[nH]c2ncccc12)C(=O)N[C@@H](CCC(=O)O)C(=O)N[C@@H](Cc1ccc(O)cc1)C(=O)N1CCC[C@H]1C(=O)N[C@H](C(=O)N[C@@H](CCC)C(=O)N[C@@H](CCCCN)C(N)=O)C1CCCCC1)C(C)(C)C
B2: R3057 (peptide)
peptide: MCVERFCD[Tle]Y[Trp(7-aza)]EYP[Phg][Nva]-NH2
modifications: linker 2-7 via mXylyl(4); not fully specified; printed as [mXylyl(2,7)]M-C-V-E-R-F-C-D-Tbg-Y-azaTrp-E-Y-P-Phg-Nvl-NH2
B3: R3004 (peptide)
peptide: Ac-[Nva]CYNN[Tle]E[Trp(7-aza)]EYP[Phg][Tle]-NH2
SMILES: CCC[C@H](NC(C)=O)C(=O)N[C@@H](CS)C(=O)N[C@@H](Cc1ccc(O)cc1)C(=O)N[C@@H](CC(N)=O)C(=O)N[C@@H](CC(N)=O)C(=O)N[C@H](C(=O)N[C@@H](CCC(=O)O)C(=O)N[C@@H](Cc1c[nH]c2ncccc12)C(=O)N[C@@H](CCC(=O)O)C(=O)N[C@@H](Cc1ccc(O)cc1)C(=O)N1CCC[C@H]1C(=O)N[C@H](C(=O)N[C@H](C(N)=O)C(C)(C)C)c1ccccc1)C(C)(C)C
B4: R3003 (peptide)
peptide: Ac-[Nva]CYEN[Tle]Y[Trp(7-aza)]EYP[Phg]P-NH2
SMILES: CCC[C@H](NC(C)=O)C(=O)N[C@@H](CS)C(=O)N[C@@H](Cc1ccc(O)cc1)C(=O)N[C@@H](CCC(=O)O)C(=O)N[C@@H](CC(N)=O)C(=O)N[C@H](C(=O)N[C@@H](Cc1ccc(O)cc1)C(=O)N[C@@H](Cc1c[nH]c2ncccc12)C(=O)N[C@@H](CCC(=O)O)C(=O)N[C@@H](Cc1ccc(O)cc1)C(=O)N1CCC[C@H]1C(=O)N[C@H](C(=O)N1CCC[C@H]1C(N)=O)c1ccccc1)C(C)(C)C
B5: R3053 (peptide)
peptide: [Nva]CCN[Tle][Phg]C[Tle][NMeS]C[Tle]-NH2
modifications: linker (positions not given here) via mXylylene; also: mXylyl bicyclo: linked cysteines not given here
B6: R3049 (peptide)
peptide: Ac-[Nva]C[Phg]T[Trp(7-aza)]EY[NMeS]HC[Nva]-NH2
modifications: linker 2-10 via oXylylene
SMILES: CCC[C@H](NC(=O)[C@@H]1CSCc2ccccc2CSC[C@H](NC(=O)[C@H](CCC)NC(C)=O)C(=O)N[C@@H](c2ccccc2)C(=O)N[C@@H]([C@@H](C)O)C(=O)N[C@@H](Cc2c[nH]c3ncccc23)C(=O)N[C@@H](CCC(=O)O)C(=O)N[C@@H](Cc2ccc(O)cc2)C(=O)N(C)[C@@H](CO)C(=O)N[C@@H](Cc2c[nH]cn2)C(=O)N1)C(N)=O
B7: R3005 (peptide)
peptide: Ac-[Nva]CY[Trp(7-aza)][Sar][Tle][Nva][Trp(7-aza)]EYP[Phg]P-NH2
SMILES: CCC[C@H](NC(C)=O)C(=O)N[C@@H](CS)C(=O)N[C@@H](Cc1ccc(O)cc1)C(=O)N[C@@H](Cc1c[nH]c2ncccc12)C(=O)N(C)CC(=O)N[C@H](C(=O)N[C@@H](CCC)C(=O)N[C@@H](Cc1c[nH]c2ncccc12)C(=O)N[C@@H](CCC(=O)O)C(=O)N[C@@H](Cc1ccc(O)cc1)C(=O)N1CCC[C@H]1C(=O)N[C@H](C(=O)N1CCC[C@H]1C(N)=O)c1ccccc1)C(C)(C)C
B8: R3077 (peptide)
peptide: Ac-[Nva][Nva]YEN[Tle]Y[Trp(7-aza)]EYP[Chg][Nva]K
modifications: not fully specified (residue 14, C-terminus); printed as Ac-Nvl-Nvl-Y-E-N-Tbg-Y-azaTrp-E-Y-P-Chg-Nvl-K-(PEG2000) NH2; also: PEG2000 at C-terminal Lys (K-(PEG2000) NH2), attachment unclear
B9: R3006 (peptide)
peptide: Ac-YEN[Tle]Y[Trp(7-aza)]EY[Sar][Nva][NMeS]-NH2
SMILES: CCC[C@H](NC(=O)CN(C)C(=O)[C@H](Cc1ccc(O)cc1)NC(=O)[C@H](CCC(=O)O)NC(=O)[C@H](Cc1c[nH]c2ncccc12)NC(=O)[C@H](Cc1ccc(O)cc1)NC(=O)[C@@H](NC(=O)[C@H](CC(N)=O)NC(=O)[C@H](CCC(=O)O)NC(=O)[C@H](Cc1ccc(O)cc1)NC(C)=O)C(C)(C)C)C(=O)N(C)[C@@H](CO)C(N)=O

target: human C5 protein (human, UniProt P01031 19-673; P01031 678-1676); assay: cell-based or functional assay

Point of comparison: Ac-[Nva]C[Phg]T[Trp(7-aza)]E[Phe(4-F)][NMeS]HC[Nva]-NH2 (linker 2-10 via mXylyl(3)) [R3073], “Avg. IC50, human hemolysis assay” value 403 nM. Against it:
- Ac-[Chg]C[Phg]T[Trp(7-aza)]EY[NMeS]AC[Nva]-NH2 (linker 2-10 via mXylyl(3)) [R3089] — higher, > 15000 nM
- B1 — 15-fold lower, 26.9 nM
- B2 — 32-fold lower, 12.4 nM
- Ac-[Nva]C[Phg]T[Trp(7-aza)]EY[NMeS]HC[Nva]-NH2 (linker 2-10 via pXylyl) [R3050] — 9.4-fold lower, 42.9 nM
- [Nva]CY[Tle][Phg]N[Sar]LC[Phg][NMeA]-NH2 (linker 2-9 via mXylyl(4)) [R3052] — higher, > 100000 nM
- B3 — 7.5-fold lower, 53.5 nM
- Ac-[Nva]C[Phg(2-OMe)′]T[Trp(7-aza)]EY[NMeS]HC[Nva]-NH2 (linker 2-10 via mXylyl(3)) [R3087] — higher, > 25000 nM
- Ac-[Nva]C[Phg]T[Trp(7-aza)]E[hPhe][NMeS]AC[Nva]-NH2 (linker 2-10 via mXylyl(3)) [R3095] — higher, > 50000 nM
- Ac-[Nva]C[Phg]T[Trp(7-aza)]EY[NMeS]HCA-NH2 (linker 2-10 via mXylyl(4)) [R3039] — 1.7-fold lower, 240 nM
- Ac-[Nva]C[Phg]T[Trp(7-aza)]EYPHC[Nva]-NH2 (linker 2-10 via pXylyl) [R3065] — within 1.5-fold, 394 nM
- Ac-[Nva]C[dChg]T[Trp(7-aza)]EY[NMeS]AC[Nva]-NH2 (linker 2-10 via mXylyl(3)) [R3093] — higher, > 100000 nM
- Ac-[Nva]C[Phg]T[Trp(7-aza)]EY[NMeS]C[Nva]-NH2 (linker 2-9 via mXylyl(3)) [R3080] — higher, > 50000 nM
- VVYENGYWEYPGVK (Ac-Nvl-Nvl-Y-E-N-Tbg-Y-azaTrp-E-Y-P-Chg-Nvl-K-(BODIPY-TMR-X) NH2) [R3076] — within 1.5-fold, 297 nM
- Ac-VC[Phg]T[Trp(7-aza)]EY[NMeS]AC[Nva]-NH2 (linker 2-10 via mXylyl(3)) [R3083] — higher, > 25000 nM
- Ac-[Nva]C[Phg]T[Trp(7-aza)]EYSAC[Nva]-NH2 (linker 2-10 via mXylyl(3)) [R3084] — higher, > 100000 nM
- B4 — 29-fold lower, 13.9 nM
- Ac-[Nva]C[Phg]T[Trp(7-aza)]EY[NMeS]HC[Nva]P[Nva] (bridge 2-10) [R3040] — higher, > 100000 nM
- B5 — higher, > 100000 nM
- PEG2000-[Nva][Nva]YEN[Tle]Y[Trp(7-aza)]EYP[Phg][Nva]-NH2 [R3078] — within 1.5-fold, 568 nM
- Ac-[Nva]CKE[Phg]YC[NMeS][Tle]K[Trp(7-aza)]EY-NH2 (linker 2-7 via mXylyl″) [R3007] — within 1.5-fold, 314 nM
- Ac-[Nva]C[Phg]T[Trp(7-aza)]E[Tyr(OMe)][NMeS]HC[Nva]-NH2 (linker 2-10 via mXylyl(3)) [R3074] — within 1.5-fold, 308 nM
- Ac-[Nva]C[Phg]T[Trp(7-aza)]EY[NMeS]HC[Nva]-NH2 (bridge 2-10) [R3042] — higher, > 100000 nM
- B6 — higher, > 3100 nM
- B7 — 6-fold lower, 66.7 nM
- Ac-[Nva]SYEC[Tle]Y[Trp(7-aza)]EYP[Chg]C[Nva]-NH2 (linker 5-13 via mXylyl(3)) [R3086] — higher, > 50000 nM
- [Nva]CY[NMeS][Phg][NMePhe(4-F)][NMeS]H[NMePhe(4-F)]GC-NH2 (linker 2-11 via mXylyl(3)) [R3075] — higher, > 75000 nM
- Ac-[Nva]C[Chg]T[Trp(7-aza)]EY[NMeS]HC[Nva]-NH2 (linker 2-10 via pXylyl) [R3058] — higher, > 10000 nM
- B8 — 4.9-fold lower, 81.7 nM
- B9 — 1.5-fold lower, 267 nM
- [Nva]CY[NMeS][Phg][NMePhe(4-F)][NMeS]H[NMePhe(4-F)][Sar]C-NH2 (linker 2-11 via mXylyl(4)) [R3051] — higher, > 100000 nM
- Ac-[Nva]CFT[Trp(7-aza)]EY[NMeS]AC[Nva]-NH2 (linker 2-10 via mXylyl(3)) [R3090] — higher, > 100000 nM

From patent US20210283212A1 (RA PHARMACEUTICALS, published 2021)
